Data from patent US20150166647A1 (VLST, published 2015).

Assays:
IL-8 [1] = target: T1, IL-8; assay: MSD electrochemiluminescence assay; chemokine coated at 1 µg/mL, 7D1G at 3 µg/mL; background = BSA
T1 construct: also called IL-8/CXCL8; CXCL8

human HCC-1/CCL14/CCL14a [2] = target: T2, human HCC-1/CCL14/CCL14a (human, UniProt Q16627 28-93); assay: as above
T2 sequence: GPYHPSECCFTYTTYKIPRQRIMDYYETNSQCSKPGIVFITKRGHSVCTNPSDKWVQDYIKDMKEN

Fractalkine = target: T3, Fractalkine; assay: as above
T3 construct: also called Fractalkine/CX3CL1; CX3CL1
T3 chemokine: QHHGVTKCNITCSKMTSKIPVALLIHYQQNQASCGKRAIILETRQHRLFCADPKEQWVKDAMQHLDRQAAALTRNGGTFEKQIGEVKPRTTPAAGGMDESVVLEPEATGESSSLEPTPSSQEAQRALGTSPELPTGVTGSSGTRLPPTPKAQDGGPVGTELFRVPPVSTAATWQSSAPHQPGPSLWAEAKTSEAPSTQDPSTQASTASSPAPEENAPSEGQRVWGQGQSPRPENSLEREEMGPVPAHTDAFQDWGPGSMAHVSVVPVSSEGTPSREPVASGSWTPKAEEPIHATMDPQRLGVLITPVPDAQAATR

human MCP-1/CCL2 [3] = target: T4, human MCP-1/CCL2 (human, UniProt P13500 24-99); assay: as above
T4 construct: also called Biotin-MCP1
T4 sequence (P13500 24-99 limits assumed): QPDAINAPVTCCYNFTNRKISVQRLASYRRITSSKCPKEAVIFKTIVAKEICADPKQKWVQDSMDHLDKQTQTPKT

Eotaxin = target: T5, Eotaxin; assay: as above
T5 construct: also called Eotaxin/CCL11; CCL11
T5 sequence (chemokine, as listed by the source): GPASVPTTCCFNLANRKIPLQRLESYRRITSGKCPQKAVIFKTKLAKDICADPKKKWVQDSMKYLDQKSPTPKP

MCP-2 = target: T6, MCP-2; assay: as above
T6 construct: also called MCP-2/CCL8; CCL8
T6 chemokine: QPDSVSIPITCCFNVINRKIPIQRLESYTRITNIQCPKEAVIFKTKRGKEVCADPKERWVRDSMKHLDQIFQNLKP

MCP-3 [4] = target: T7, MCP-3; assay: as above
T7 construct: also called MCP-3/CCL7; CCL7
T7 sequence (chemokine, as listed by the source): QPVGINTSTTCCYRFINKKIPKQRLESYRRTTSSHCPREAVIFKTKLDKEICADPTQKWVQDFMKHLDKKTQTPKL

HCC-4 [5] = target: T8, HCC-4; assay: as above
T8 construct: also called HCC-4/CCL16; CCL16
T8 chemokine: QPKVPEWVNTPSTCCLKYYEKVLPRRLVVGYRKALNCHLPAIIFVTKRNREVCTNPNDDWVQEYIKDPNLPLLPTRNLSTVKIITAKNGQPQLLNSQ

MCP-4 [6] = target: T9, MCP-4; assay: as above
T9 construct: also called MCP-4/CCL13; CCL13
T9 sequence (chemokine, as listed by the source): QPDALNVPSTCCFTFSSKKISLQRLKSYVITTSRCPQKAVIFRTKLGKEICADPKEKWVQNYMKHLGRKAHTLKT

I-309 [7] = target: T10, I-309; assay: as above
T10 construct: also called I-309/CCL1; CCL1
T10 chemokine: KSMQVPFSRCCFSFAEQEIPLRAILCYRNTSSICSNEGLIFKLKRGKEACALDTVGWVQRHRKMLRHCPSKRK

SDF [8] = target: T11, SDF; assay: as above
T11 construct: also called SDF-1/CXCL12; CXCL12
T11 sequence (chemokine, as listed by the source): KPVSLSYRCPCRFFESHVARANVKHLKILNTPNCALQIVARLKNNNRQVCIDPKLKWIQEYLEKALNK

MDC [9] = target: T12, MDC; assay: as above
T12 construct: also called MDC/CCL22; CCL22
T12 chemokine: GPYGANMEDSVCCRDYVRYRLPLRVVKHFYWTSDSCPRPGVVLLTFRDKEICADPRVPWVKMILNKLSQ

mouse RANTES/CCL5 = target: T13, mouse RANTES/CCL5 (mouse, UniProt P30882 24-91); assay: MSD electrochemiluminescence, chemokine coated at 1 µg/mL
T13 construct: also called muRANTES
T13 sequence (P30882 24-91 limits assumed): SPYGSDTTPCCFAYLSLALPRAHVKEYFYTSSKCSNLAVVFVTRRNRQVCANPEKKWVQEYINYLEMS

mouse MIP-1β/CCL4 [10] = target: T14, mouse MIP-1β/CCL4 (mouse, UniProt P14097 24-92); assay: Binding (MSD)
T14 construct: also called muMIP-1β
T14 sequence: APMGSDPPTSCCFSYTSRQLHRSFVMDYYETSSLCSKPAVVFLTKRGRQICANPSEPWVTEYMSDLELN

mouse MIP-1α/CCL3 [11] = target: T15, mouse MIP-1α/CCL3 (mouse, UniProt P10855 24-92); assay: Binding (MSD)
T15 construct: also called muMIP-1α
T15 sequence: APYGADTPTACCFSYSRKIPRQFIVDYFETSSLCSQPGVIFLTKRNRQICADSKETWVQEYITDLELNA

human MIP-1β/CCL4 = target: T16, human MIP-1β/CCL4 (human, UniProt Q8NHW4 24-92); assay: ELISA, hybridoma fusion-well supernatant on biotinylated chemokine on streptavidin plate; background approx. 0.150
T16 construct: also called Biotin-MIP-1β
T16 chain: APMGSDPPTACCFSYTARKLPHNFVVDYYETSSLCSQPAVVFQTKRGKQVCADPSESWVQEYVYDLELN

human MCP-1/CCL2 [12] = target: T4, human MCP-1/CCL2; assay: as above
human RANTES/CCL5 [13] = target: T17, human RANTES/CCL5 (human, UniProt P13501 24-91); assay: as above
T17 construct: also called Biotin-RANTES
T17 sequence: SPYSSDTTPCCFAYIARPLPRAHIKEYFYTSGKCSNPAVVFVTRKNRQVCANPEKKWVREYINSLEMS

human MIP-1α/CCL3 [14] = target: T18, human MIP-1α/CCL3 (human, UniProt P10147 24-92); assay: ELISA, hybridoma fusion-well supernatant on coated MIP-1α; background approx. 0.150
T18 construct: also called Biotin-MIP-1α
T18 sequence: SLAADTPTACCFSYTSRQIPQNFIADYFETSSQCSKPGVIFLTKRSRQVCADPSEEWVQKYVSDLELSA

human RANTES/CCL5 [15] = target: T17, human RANTES/CCL5; assay: cell-based or functional assay
human MIP-1α/CCL3 [16] = target: T18, human MIP-1α/CCL3; assay: cell-based or functional assay
human MIP-1α/CCL3 [17] = target: T18, human MIP-1α/CCL3; assay: BIAcore (SPR)
mouse MIP-1β/CCL4 [18] = target: T14, mouse MIP-1β/CCL4; assay: MSD electrochemiluminescence, chemokine coated at 1 µg/mL
mouse MIP-1α/CCL3 [19] = target: T15, mouse MIP-1α/CCL3; assay: as above
IL-8 [20] = target: T1, IL-8; assay: MSD electrochemiluminescence assay; chemokine coated at 1 µg/mL, 3C12F at 3 µg/mL; background = BSA
human HCC-1/CCL14/CCL14a [21] = target: T2, human HCC-1/CCL14/CCL14a; assay: as above
ELC = target: T19, ELC; assay: as above
T19 construct: also called ELC/MIP-3β/CCL19; CCL19
T19 chemokine: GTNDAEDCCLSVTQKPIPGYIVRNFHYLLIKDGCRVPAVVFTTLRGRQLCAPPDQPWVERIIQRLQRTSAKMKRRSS

human MCP-1/CCL2 [22] = target: T4, human MCP-1/CCL2; assay: as above
human MPIF-1/CCL23 = target: T20, human MPIF-1/CCL23 (human, UniProt P55773 46-120); assay: as above
T20 sequence: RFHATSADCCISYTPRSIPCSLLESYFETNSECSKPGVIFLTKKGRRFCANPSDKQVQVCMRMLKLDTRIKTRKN

MCP-3 [23] = target: T7, MCP-3; assay: as above
human HCC-2/MIP-1δ/CCL15 = target: T21, human HCC-2/MIP-1δ/CCL15 (human, UniProt Q16663 46-113); assay: as above
T21 sequence: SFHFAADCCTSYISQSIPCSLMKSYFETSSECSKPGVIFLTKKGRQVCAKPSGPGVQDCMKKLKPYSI

HCC-4 [24] = target: T8, HCC-4; assay: as above
MCP-4 [25] = target: T9, MCP-4; assay: as above
I-309 [26] = target: T10, I-309; assay: as above
SDF [27] = target: T11, SDF; assay: as above
MDC [28] = target: T12, MDC; assay: as above
human PARC/CCL18 = target: T22, human PARC/CCL18 (human, UniProt P55774 21-89); assay: as above
T22 sequence: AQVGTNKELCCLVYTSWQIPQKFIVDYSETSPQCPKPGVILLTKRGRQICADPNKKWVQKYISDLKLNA

T1 sequence (chemokine, as listed by the source): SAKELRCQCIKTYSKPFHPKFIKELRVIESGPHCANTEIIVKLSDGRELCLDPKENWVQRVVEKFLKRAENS

B1: monoclonal antibody 7D1G (antibody, V domains shown)
VH: QVQLQQPGAELVKPGASVKMSCKASGYTFTSYNIHWVKQTPGQGLEWIGAVSPRNGDTSYNQRFKGKATLTADISSSTAYMQLSSLTSEDSAVYYCARGYGYDYWGQGTTLTVSS
VL: DVVLTQSPATLSVTPGDRVSLSCRASQSVSKYLHWYQQKSHESPRLLIKYVSQSISGIPSRFSGSGSGTDFTLSINSVETEDLGMYFCQQSNSWPHTFGAGTKLELK
notes: also called MAb 7D1G
B1: no binding (tested: 3 µg/mL) (IL-8 [1]); binds (human HCC-1/CCL14/CCL14a [2]); no binding (tested: 3 µg/mL) (Fractalkine). B1: no binding (tested: 3 µg/mL) (human MCP-1/CCL2 [3]); no binding (tested: 3 µg/mL) (Eotaxin); no binding (tested: 3 µg/mL) (MCP-2). B1: no binding (tested: 3 µg/mL) (MCP-3 [4]); no binding (tested: 3 µg/mL) (HCC-4 [5]); no binding (tested: 3 µg/mL) (MCP-4 [6]). B1: no binding (tested: 3 µg/mL) (I-309 [7]); no binding (tested: 3 µg/mL) (SDF [8]); no binding (tested: 3 µg/mL) (MDC [9]). B1: no binding (tested: 3 µg/mL) (mouse RANTES/CCL5); binds (mouse MIP-1β/CCL4 [10]); binds (mouse MIP-1α/CCL3 [11]). It also gave an ELISA signal (human MIP-1β/CCL4) of 2.57, an ELISA signal (human MCP-1/CCL2 [12]) of 0.22 and an ELISA signal (human RANTES/CCL5 [13]) of 0.145. For the same binder, the ELISA signal (human MIP-1α/CCL3 [14]) was 1.7.

B2: monoclonal antibody 3C12F (antibody, V domains shown)
VH: EVQLQQSGAELVKPGASVKLSCTASGFNIKDTYIHWVKQRPEQGLEWIGRIDPANGNTQYDPKFQGKATITADTSSNTAYLQLTSLTSEDTAVYYCARRWDYDYAMDYWGQGTSVTVSS
VL: DIQMTQSPASLSASVGETVTITCRGSGNIHNYLAWYQQKQGKSPQLLVYNAKTLADGVPSRFSGSGSGTQYSLKINSLQPEDFGSYYCQHFWSTPYTFGGGTKLEIK
notes: also called MAb 3C12F
With B2 the “IC50 of inhibition of chemotaxis (5 ng/mL chemokine)” value (human RANTES/CCL5 [15]) was 3 to 5 µg/mL, the “IC50 of inhibition of chemotaxis (5 ng/mL chemokine)” value (human MIP-1α/CCL3 [16]) was 3 to 5 µg/mL and the Kd (human MIP-1α/CCL3 [17]) was 49 nM. B2: no binding (tested: 3 µg/mL) (mouse MIP-1β/CCL4 [18]); no binding (tested: 3 µg/mL) (mouse MIP-1α/CCL3 [19]); no binding (tested: 3 µg/mL) (mouse RANTES/CCL5). B2: no binding (tested: 3 µg/mL) (IL-8 [20]); no binding (tested: 3 µg/mL) (human HCC-1/CCL14/CCL14a [21]); no binding (tested: 3 µg/mL) (ELC). B2: no binding (tested: 3 µg/mL) (human MCP-1/CCL2 [22]); binds (human MPIF-1/CCL23); no binding (tested: 3 µg/mL) (MCP-3 [23]). B2: binds (human HCC-2/MIP-1δ/CCL15); no binding (tested: 3 µg/mL) (HCC-4 [24]); no binding (tested: 3 µg/mL) (MCP-4 [25]). B2: no binding (tested: 3 µg/mL) (I-309 [26]); no binding (tested: 3 µg/mL) (SDF [27]); no binding (tested: 3 µg/mL) (MDC [28]). The binding result (human PARC/CCL18) was “no binding (tested: 3 µg/mL)”, the ELISA signal (human MIP-1β/CCL4) was 1.92 and the ELISA signal (human MCP-1/CCL2 [12]) was 0.189. The ELISA signal (human RANTES/CCL5 [13]) was 2.61 and the ELISA signal (human MIP-1α/CCL3 [14]) was 1.84.
